Laboratory results as given in patent publication US20240309103A1 (Regeneron, published 2024).

B1: mAb25497 (antibody, V domains shown)
VH: QVQLVQSGAEVKEPGASVKVSCKASGYTFTDYYIHWVRQAPGQGLEWMGWINLNSGGKNHAQKFQGRVTVTSDTSINTAYIELGRLRGDDTAVYYCSRGGGSHYYYYYHGMDVWGQGTTVTVSS
VL: DIQMTQSPSSLSASVGDRITITCRASHSIDSYLNWYQQKPGKAPKLLIYPASTLQSGVPSRFSGSGSGTDFTLTISSLQPEDSAIYYCQQSYSTPLTFGGGTKVEIK
B2: mAb25498 (antibody, V domains shown)
VH: QVQLVESGGGVVQPGRSLRLSCVASGFTFSSYGMVWVRQTPGKGLEWVAVIWHDGTNNYYADSVKGRFTISRDNSKNTLYLQMNSLRAEDTAVYYCAREPWLVRGYYYYAMDVWGQGTTVTVSS
VL: not shown
B3: mAb22805 (antibody, V domains shown)
VH: QVQLVESGGGVVQPGRSLRLSCAASGFTFSTYGMHWVRQAPGKGLEWVALIWNDGSNKYYADSVKGRFTISRDNSKNTLDLQMNSLRAEDTAVYYCARLNTRITGTTNLDYWGQGTLVTVSS
VL: DIQMTQSPSSLSASVGDRVTVSCRASQSIANYLNWYQQKPGKAPNLLIYGAYTLQSGVPSRFRGSGSGTDFTLTISSLQPEDFATYYCQQTYSTPPITFGQGTRLEIK

Assays:
[1] = molecular target: T1, mouse NPR1 extracellular domain expressed with a C-terminal mouse IgG2a (mNPR1-mFc) (mouse); assay: SPR, Tables 21 to 26
T1 chain: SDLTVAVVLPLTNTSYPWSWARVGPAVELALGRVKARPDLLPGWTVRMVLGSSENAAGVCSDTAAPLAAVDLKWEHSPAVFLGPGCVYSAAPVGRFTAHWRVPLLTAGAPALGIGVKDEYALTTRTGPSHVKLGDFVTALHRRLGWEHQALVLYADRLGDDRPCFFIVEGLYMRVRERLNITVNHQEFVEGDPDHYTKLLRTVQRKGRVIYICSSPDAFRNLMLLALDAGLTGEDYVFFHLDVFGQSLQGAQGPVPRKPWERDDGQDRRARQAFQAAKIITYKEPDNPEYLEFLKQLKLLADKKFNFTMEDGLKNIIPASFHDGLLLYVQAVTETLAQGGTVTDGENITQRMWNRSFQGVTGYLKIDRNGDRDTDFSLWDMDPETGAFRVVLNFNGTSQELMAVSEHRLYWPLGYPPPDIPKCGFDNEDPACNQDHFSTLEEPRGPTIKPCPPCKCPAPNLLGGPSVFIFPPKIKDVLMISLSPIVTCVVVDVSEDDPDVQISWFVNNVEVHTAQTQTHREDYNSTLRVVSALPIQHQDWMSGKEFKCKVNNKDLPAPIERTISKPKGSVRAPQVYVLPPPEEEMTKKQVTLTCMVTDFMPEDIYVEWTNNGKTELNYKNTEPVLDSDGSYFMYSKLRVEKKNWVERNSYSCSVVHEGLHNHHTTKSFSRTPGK
Experimental: Equilibrium dissociation constant (KD) for different NPR1 reagents binding to purified anti-NPR1 monoclonal antibodies (mAbs) were determined using a real-time surface plasmon resonance based Biacore 4000 biosensor. All binding studies were performed in 10 mM HEPES, 150 mM NaCl, 3 mM EDTA, and 0.05% v/v Surfactant Tween-20, pH 7.4 (HBS-ET) running buffer at 25° C. and 37° C. The Biacore CM5 sensor chip surface was first derivatized by amine coupling with either mouse anti-human Fc specific mAb (GE Healthcare, #BR100839) or goat anti-human Fcy specific polyclonal antibody (Jackson ImmunoResearch Laboratories, #BR-1008-39) to capture anti-NPR1 mAbs.

[2] = molecular target: T2, human NPR1 extracellular domain expressed with a C-terminal myc-myc-hexahistidine (hNPR1-MMH) (human, UniProt P16066 33-473); assay: SPR, mAb captured, 25 C
T2 construct: also called hNPR.mmh; monomeric human NPR1
Summary of the method: (§1)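 Read-out is KD from real-time SPR (Biacore 4000). Purified mAbs sat on an anti-human Fc capture surface (mouse mAb or goat anti-Fcγ polyclonal) on CM5. Runs used HBS-ET: 10 mM HEPES, 150 mM NaCl, 3 mM EDTA, 0.05% Tween-20, pH 7.4.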

[3] = molecular target: T3, monkey NPR1 extracellular domain expressed with a C-terminal myc-myc-hexahistidine (mfNPR1-MMH) (monkey, UniProt P16066 33-473 (human entry)); assay: SPR, mAb captured, 25 C
T3 construct: also called monomeric monkey NPR1
T3 chain: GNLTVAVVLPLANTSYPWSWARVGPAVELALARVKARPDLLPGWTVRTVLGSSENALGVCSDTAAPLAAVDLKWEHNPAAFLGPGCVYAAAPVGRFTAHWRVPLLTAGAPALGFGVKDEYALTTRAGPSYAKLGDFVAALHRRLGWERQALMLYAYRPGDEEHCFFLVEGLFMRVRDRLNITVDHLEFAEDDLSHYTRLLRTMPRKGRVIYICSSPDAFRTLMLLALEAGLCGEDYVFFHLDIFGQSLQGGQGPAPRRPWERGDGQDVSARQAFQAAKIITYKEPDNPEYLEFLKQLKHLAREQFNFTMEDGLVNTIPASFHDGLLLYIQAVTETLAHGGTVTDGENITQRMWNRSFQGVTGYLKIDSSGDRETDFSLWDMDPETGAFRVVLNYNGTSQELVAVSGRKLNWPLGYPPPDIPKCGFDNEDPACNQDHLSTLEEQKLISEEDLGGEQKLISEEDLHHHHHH
Summary of the method: as §1

[4] = molecular target: T4, mouse NPR1 extracellular domain expressed with a C-terminal myc-myc-hexahistidine (mNPR1-MMH) (mouse, UniProt P18293 29-469); assay: SPR, mAb captured, 25 C
Summary of the method: as §1

[5] = molecular target: T5, human NPR1 extracellular domain expressed with a C-terminal mouse IgG2a (hNPR1-mFc) (human); assay: SPR, mAb captured, 25 C
T5 construct: also called hNPR1-Fc; human NPR1 dimer
T5 chain: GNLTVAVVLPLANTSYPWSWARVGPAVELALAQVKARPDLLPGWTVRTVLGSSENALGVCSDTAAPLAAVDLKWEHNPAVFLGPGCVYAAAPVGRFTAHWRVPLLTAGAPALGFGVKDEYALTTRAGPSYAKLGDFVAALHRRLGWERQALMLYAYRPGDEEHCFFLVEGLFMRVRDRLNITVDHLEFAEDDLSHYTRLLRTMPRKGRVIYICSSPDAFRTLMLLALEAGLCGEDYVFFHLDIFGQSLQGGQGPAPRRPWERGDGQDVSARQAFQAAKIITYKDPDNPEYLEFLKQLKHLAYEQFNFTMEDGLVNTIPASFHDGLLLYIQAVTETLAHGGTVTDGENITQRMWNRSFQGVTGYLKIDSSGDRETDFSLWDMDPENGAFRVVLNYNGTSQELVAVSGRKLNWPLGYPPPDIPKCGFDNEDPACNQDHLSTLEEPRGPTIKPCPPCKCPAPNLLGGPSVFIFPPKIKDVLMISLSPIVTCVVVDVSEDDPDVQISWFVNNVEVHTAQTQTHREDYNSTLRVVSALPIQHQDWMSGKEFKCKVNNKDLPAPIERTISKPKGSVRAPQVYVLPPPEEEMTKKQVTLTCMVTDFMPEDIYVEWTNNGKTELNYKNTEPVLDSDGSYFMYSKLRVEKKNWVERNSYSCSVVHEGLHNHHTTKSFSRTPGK
Summary of the method: as §1

[6] = molecular target: T2, human NPR1 extracellular domain …; assay: SPR, mAb captured, 37 C
Summary of the method: as §1

[7] = molecular target: T3, monkey NPR1 extracellular domain …; assay: SPR, mAb captured, 37 C
Summary of the method: as §1

[8] = molecular target: T4, mouse NPR1 extracellular domain …; assay: SPR, mAb captured, 37 C
Summary of the method: as §1

[9] = molecular target: T5, human NPR1 extracellular domain …; assay: SPR, mAb captured, 37 C
Summary of the method: as §1

Binder	binding result [1]	100 nM Ag Bound (RU) [2] [RU]	Kd [2] [µM]	koff [2] [s⁻¹]	kon [2] [M⁻¹ s⁻¹]	t½ [2] [min]	100 nM Ag Bound (RU) [3] [RU]	Kd [3] [µM]	koff [3] [s⁻¹]	kon [3] [M⁻¹ s⁻¹]	t½ [3] [min]	100 nM Ag Bound (RU) [4] [RU]	binding result [4]	100 nM Ag Bound (RU) [5] [RU]	Kd [5] [µM]	koff [5] [s⁻¹]	100 nM Ag Bound (RU) [6] [RU]	100 nM Ag Bound (RU) [7] [RU]	100 nM Ag Bound (RU) [8] [RU]	100 nM Ag Bound (RU) [9] [RU]	also measured
B1	no binding	22	0.0527	0.00167	31700	6.9	49	0.0598	0.00226	37800	5.1	0	no binding (tested: 100 nM)	49	0.000238	4.83e-05	31	69	0	43	kon [5]: 203000 M⁻¹ s⁻¹; t½ [5]: 239 min; Kd [6]: 0.139 µM; koff [6]: 0.00258 s⁻¹; kon [6]: 18600 M⁻¹ s⁻¹; t½ [6]: 4.5 min; Kd [7]: 0.139 µM; koff [7]: 0.00384 s⁻¹; kon [7]: 27700 M⁻¹ s⁻¹; t½ [7]: 3 min; Kd [9]: 0.00731 µM; koff [9]: 0.00031 s⁻¹; kon [9]: 42300 M⁻¹ s⁻¹; t½ [9]: 37.3 min
B2	no binding	68	0.081	0.00182	22500	6.3	114	0.0272	0.00158	57900	7.3	0	no binding (tested: 100 nM)	94	0.00365	0.000255	97	151	0	129	kon [5]: 69800 M⁻¹ s⁻¹; t½ [5]: 45.3 min; Kd [6]: 0.184 µM; koff [6]: 0.00415 s⁻¹; kon [6]: 22500 M⁻¹ s⁻¹; t½ [6]: 2.8 min; Kd [7]: 0.0521 µM; koff [7]: 0.00369 s⁻¹; kon [7]: 70700 M⁻¹ s⁻¹; t½ [7]: 3.1 min; Kd [9]: 0.00641 µM; koff [9]: 0.000568 s⁻¹; kon [9]: 88600 M⁻¹ s⁻¹; t½ [9]: 20.3 min
B3	no binding	0	–	–	–	–	0	–	–	–	–	0	no binding (tested: 100 nM)	2	–	–	1	3	1	8	binding result [2]: no binding (tested: 100 nM); binding result [3]: no binding (tested: 100 nM); binding result [5]: no binding (tested: 100 nM)
